Columns and labels:
[1] = target: T1, extracellular portion of MET (EC-MET) (human, UniProt P08581); experiment: ELISA; plates coated with 1 μg/mL MET or SEMA in PBS overnight at 4°C; blocked with PBS, 3% BSA, 20 mM EDTA, 0.05% Tween 20; mAbs from 64 μg/mL in 4-fold dilutions, 1 h room temperature; anti-IgG-HRP, OD650; details: both partners purified
T1 construct: MET, human, 908-amino acid extracellular portion; tags printed as HHHHHH and …; EC-MET was biotinylated with BirA for cell sorting only; also called recombinant ectodomain of MET; source: Expi293F, transient transfection, purified from supernatant (Ni-NTA); not shown: His6, C-terminal, kept; Avi-Tag, C-terminal, kept
T1 sequence (P08581 25-932): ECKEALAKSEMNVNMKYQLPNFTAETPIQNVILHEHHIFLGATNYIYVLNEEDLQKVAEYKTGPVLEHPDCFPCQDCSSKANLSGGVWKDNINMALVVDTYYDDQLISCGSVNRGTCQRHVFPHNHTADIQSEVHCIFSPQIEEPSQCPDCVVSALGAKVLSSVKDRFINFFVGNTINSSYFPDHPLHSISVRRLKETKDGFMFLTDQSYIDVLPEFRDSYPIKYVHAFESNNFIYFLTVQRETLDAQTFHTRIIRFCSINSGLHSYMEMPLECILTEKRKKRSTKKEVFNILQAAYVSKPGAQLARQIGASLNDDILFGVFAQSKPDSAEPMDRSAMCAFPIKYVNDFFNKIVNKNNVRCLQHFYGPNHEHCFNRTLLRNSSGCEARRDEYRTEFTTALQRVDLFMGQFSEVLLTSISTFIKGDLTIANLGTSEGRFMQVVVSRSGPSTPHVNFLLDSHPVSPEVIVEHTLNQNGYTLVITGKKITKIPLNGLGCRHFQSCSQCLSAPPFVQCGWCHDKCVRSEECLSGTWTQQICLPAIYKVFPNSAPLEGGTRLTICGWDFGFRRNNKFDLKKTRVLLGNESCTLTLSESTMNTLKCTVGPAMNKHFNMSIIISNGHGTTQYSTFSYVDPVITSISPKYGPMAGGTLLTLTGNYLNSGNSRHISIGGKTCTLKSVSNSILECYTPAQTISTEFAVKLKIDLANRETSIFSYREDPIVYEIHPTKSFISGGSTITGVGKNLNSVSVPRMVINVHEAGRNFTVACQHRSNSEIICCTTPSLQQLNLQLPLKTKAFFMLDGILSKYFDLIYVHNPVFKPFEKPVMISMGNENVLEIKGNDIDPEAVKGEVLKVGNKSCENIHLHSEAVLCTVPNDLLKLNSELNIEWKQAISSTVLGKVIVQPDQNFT

[2] = target: T2, SEMA, the ligand-binding domain of MET (Homo sapiens, UniProt P08581); experiment: as above; details: both partners purified
T2 construct: source: Expi293F, transient transfection, purified from supernatant (Ni-NTA); not shown: His6, C-terminal, kept; Avi-Tag, C-terminal, kept
T2 sequence (P08581 27-515): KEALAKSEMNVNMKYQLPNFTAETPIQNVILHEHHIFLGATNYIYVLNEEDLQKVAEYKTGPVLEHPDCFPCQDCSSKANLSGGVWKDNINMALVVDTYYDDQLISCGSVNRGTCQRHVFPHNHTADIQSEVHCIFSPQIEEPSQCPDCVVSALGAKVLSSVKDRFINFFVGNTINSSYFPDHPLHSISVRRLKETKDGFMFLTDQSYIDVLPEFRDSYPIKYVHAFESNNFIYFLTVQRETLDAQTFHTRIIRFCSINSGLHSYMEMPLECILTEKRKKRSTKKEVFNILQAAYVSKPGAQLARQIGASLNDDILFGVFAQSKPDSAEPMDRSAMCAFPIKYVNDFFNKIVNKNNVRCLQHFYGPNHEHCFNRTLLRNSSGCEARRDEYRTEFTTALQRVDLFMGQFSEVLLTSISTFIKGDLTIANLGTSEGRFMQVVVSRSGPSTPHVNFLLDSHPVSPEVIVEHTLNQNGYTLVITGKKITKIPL

binding result [1]: binds
binding result [2]: binds
B1: mAb 69B253 (antibody, V domains shown)
VH: EVQLVESGGALVQPGGSLRLSCAASGFTFSSYGMGWVRQAPGKGLEWVSVIIGSGGSTSYVDSVRGRFTISRDNSRNMVYLQMSSLTVDDTAVYYCAKAACGVGFCYRSHWGQGTRVTVSS
VL: SLSVSPGETVTLSCRASQSVSSNLAWYQHKPGQAPRLLIHDASTRATGIPVRFSGSGSGTDFTLTISSLQSEDFAVYYCQHYYNWPYGFAQGTKLEIK
notes: heavy chain V(D)J region; light chain VJ region; light chain constant region of the Ig expression vector; Cloned from a MET-enriched B cell of a cancer patient; detected with anti-IgG secondary antibody; source: Expi293F, cotransfected heavy and light chain vectors, purified (protein A)

Reference: publication PMC12129041, “Unique characteristics of autoantibodies targeting MET in patients with breast and lung cancer” (JCI Insight, 2025)
